Laboratory results published in the RNAGym collection of RNA variant scans (doi:10.1073/pnas.2313332121).

B1: TPR t1 (parent)
chain: GACCAAUCUGCCCUCAGAGCUCGAGAACAUCUUCGGAUGCAGAGGAGGCAGGCUUCGGUGGCGCGAUAGCGCCAACGUCCUCAACCUCCAAUGCAUCCCACCACAUGAUGAUGCCUGAAGAGCCUUGGUUUUUUG

Variants of: B1
Test: polymerase ribozyme fitness, log enrichment relative to wild type (log ratio); higher = more active; in vitro selection for triplet polymerase activity
In short: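 Each subunit of a heterodimeric triplet polymerase ribozyme was mutagenized into a library by PCR, transcribed, and subjected to one round of in vitro selection, run in triplicate. Libraries were annealed with a biotinylated primer, the partner subunit and triplets, incubated frozen at −7 °C, and extended constructs were gel-excised, captured on streptavidin beads and recovered by RT-PCR. Input and output libraries were sequenced on Illumina, keeping genotypes with ≥10 input reads and ≥1 read per output. Fitness is log base 2 of genotype enrichment divided by wild-type enrichment, from inverse-variance-weighted replicate averages.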

Variant | polymerase ribozyme fitness (log ratio)
GACCAAUCUGCCCUCAGAGCUCGAGAACAUCUUCGGAUGCAGAAGAGGCAGGCUUCGGUGGCGAGAUAGCGCCAAAGUCCUCAACCUCCAAUGCAUCCCACCACAUGAUGAUGCCUGAAGAGCCUUGGUUUUUUG [G44A C64A C76A] | -6.8
GACCAAUCUGCCCUCAGAGCUCGAGAACAUCUUCGGAUGCAGAAGAGGCAGGCUUCGGUGGCGCGAUAGCGCCAACGUCCUCAACCUCCAAUGCAUCCCACCACAUGAUGUUGCCUGAAGAGCCUUGGUUUUUUG [G44A A111U] | -4.79
GACCAAUCUGCCCUCAGAGCUCGAGAACAUCUUCGGAUGCAGAAGAGGCAGGCUUCGGUGGCGUGAUAGCGCCAACGUCCUCAACCUCCAAUGCAUCCCACCACAUGAUGAUGCCUGAAGAGCCUUGCUUUCUUG [G44A C64U G128C U132C] | -2.96
GACCAAUCUGCCCUCAGAGCUCGAGAACAUCUUCGGAUGCAGAAGAGGCAGGCUUGGGUGGCGCGAUAGCGCCAAAGUCCUCAACAUCCAAUGCAUCCCACCACAUGAUGAUGCCUGAAGAGCCUUGGUUUUUUG [G44A C56G C76A C86A] | -2.93
GACCAAUCUGCCCUCAGAGCUCGAGAACAUCUUCGGAUGCAGAAGAGGCAGGCUUCGGUGGAGCGAUAGCGCCAACGUCCUCAACCUUUAAUGCAUCCCACCACAUGAUGAUGCCUGAAGAGCCUUGCGUUUUUG [G44A C62A C88U C89U G128C U129G] | -2.95
GACCAAUCUGCCCUCAGAGCUCGAGAACAUCUUCGGAUGCAGAAGAGGCAGGUUUCGGUGGCGCGAUAGCGCCAACGUCCUUAACCUCCAAUGCAUCCCACCACAUGAUGAUGCCUAAAGAGCAUUGGUUUUUUG [G44A C53U C82U G117A C124A] | -1.14
GACCAAUCUGCCCUCAGAGCUCGAGAACAUCUUCGGAUGCAGAAGAGGCAGGCUUCGGUGGCGCGAUAGGGCCAACGUCCUCAACCUCCAAUGCAUCCCAGCACAUGAUGAUGUCUGAAGAGCCUUGCUUUUUUG [G44A C70G C101G C114U G128C] | -6.56
GACCAAUCUGCCCUCAGAGCUCGAGAACAUCUUCGGAUGCAGAAGAGGCAGGCUUCGGUGGCGCGAUAGCGCCAACGUCCUCAACCUCCAAUGCAUCCCACCUCAUGAUGAUGCCUGAAGAGCCUUGGUUUUUUG [G44A A103U] | -5.44
GACCAAUCUGCCCUCAGAGCUCGAGAACAUCUUCGGAUGCAGAAGAGGCAGGCUUCGGUGGCGCGAUAGCGCCAACGUCCUCAACCUCCAAUGCAUCCCACCGCAUGAUGAUGCCUGAAGAGCCUUGGUUUUUUG [G44A A103G] | -6.14
GACCAAUCUGCCCUCAGAGCUCGAGAACAUCUUCGGAUGCAGAAGAGGUAGGCGUCGGAGACGCGAUAGCGCCAACGUCCUCAACCUCCAAUGCAUCCCACCACAUGAUGAUGCCUGAGGAGCCUUGGUUUUUUG [G44A C49U U54G U59A G61A A119G] | -7.24
GACCAAUCUGCCCUCAGAGCUCGAGAACAUCUUCGGAUGCAGAAGAGGCAGGCUUCGGUGGCGCGAUAGCGCCAACGUCCUCAACCUCCAAUGCCUCCCACCACAUGAUGAUGCCUGAAGAGGCUUGGUUUAUUG [G44A A95C C123G U132A] | -1.17
GACCAAUCUGCCCUCAGAGCUCGAGAACAUCUUCGGAUGCAGAAGAGGUAGGCUUCGGUGGCGCGAUAGCGCCAACGUCCUCAACCUCCAAUGCAUCCCACCACAUGAUGAUGCCUCAAGAGCCUUGGUUUUGUG [G44A C49U G117C U133G] | -5.23
GACCAAUCUGCCCUCAGAGCUCGAGAACAUCUUCGGAUGCAGAAGAGGCAGGCUUCGGUGGCGCGAUAGUGCCAACGUCCUCGACCUCCAAUGCACCCCACCACAUGAUUAUGCCUGAAGAGCCUUGGUUUUUUG [G44A C70U A83G U96C G110U] | -6.41
GACCAAUCUGCCCUCAGAGCUCGAGAACAUCUUCGGAUGCAGAAGAGGCAGGCUUCGGUGGCGCGAUAGGGCCAACGUCCUCAACCUCCAAUGCAUCCCACCACAUGAUGAUGCCUGAAGAGCCUUGGUUUUUUG [G44A C70G] | -4.21
GACCAAUCUGCCCUCAGAGCUCGAGAACAUCUUCGGAUGCAGAAGAGGCAGGAUUCGGUGGCGCGAUAGCGCCAACGUCCUCAACCUCCAAUGCAUCCCACCACAUGAUGAUGCCUGAAGAGCCUUGGUUUUUUG [G44A C53A] | 0.047
GACCAAUCUGCCCUCAGAGCUCGAGAACAUCUUCGGAUGCAGAAGAGGCAGGUUUCGGUGGCGCGAUAGCGCCAACGUCCUCAACCUCCAAUGCAUCCCACCACAUGAUGAUGCCUGAAGAGCCGUGGUUUUUUG [G44A C53U U125G] | -2.16
GACCAAUCUGCCCUCAGAGCUCGAGAACAUCUUCGGAUGCAGAAGAGGCAGGCUUUGGUGGCGCGAUAGCGCCAACGUCCUCAACCUCCAAUGCAUCCCACCACAUGAUGAUGCCUGAAGAGUCUUGGUUUUUUU [G44A C56U C123U G135U] | -0.56
GACCAAUCUGCCCUCAGAGCUCGAGAACAUCUUCGGAUGCAGAAGAGGCAGGCUUCGGUGGCGCGAUAGCGCCAACGUCCUCAACCUCCAAUGCAUCCCACCACAUGAUGAUGCCUGGAGAGCCUUGGUUUUUUG [G44A A118G] | -1.56
GACCAAUCUGCCCUCAGAGCUCGAGAACAUCUUCGGAUGCAGAAGAGGCAGGCUUCGGUGGCGCGAUAGCGCCAACGUCCUCAACCUCCAAUGCAUCCCACCACAUGAUGAUGCCUGUAGAGCCUUGGUUUUUUG [G44A A118U] | -0.0596
GACCAAUCUGCCCUCAGAGCUCGAGAACAUCUUCGGAUGCAGAAGAGGCAGGCUUUGGUGGCGCGAUAGCGCCAACGUCCUCACCCUCCAAUGCAUCCCACCACAUGAUGAUGCCUGAACAGCCUUGGUUUUUUG [G44A C56U A84C G120C] | -0.295
GACCAAUCUGCCCUCAGAGCUCGAGAACAUCUUCGGAUGCAGAAGAGGCAGGCUUCGGUGGCGCGAUAGCGCCAACGUCCUCAACCUCCAAUGCAUCCCACCACAUGAUGUUGCCUGAAGAGCCUUGGUUUAUUG [G44A A111U U132A] | -3.18
